Columns and labels:
double-stranded DNA = settings: average base pairs unwound in a single binding event; cited from earlier work
HEK3 locus = assay: HACE editing assay at the HEK3 locus, amplicon sequencing; type: cell-based, human; settings: HEK293FT cells, HEs with and without UGI fusion
Description: An example HACE Editor (HE) protein was constructed by fusing a hyperactive mutant of activation-induced cytidine deaminase (AID*Δ) with a Geobacillus stearothermophilus PcrA helicase that was previously optimized for processivity (PcrA M6). […] After the nCas9 creates a nick, the HE may load at the nick, start unwinding the DNA, and generate random mutations in the process.
Separate plasmids expressing HE, nCas9, and a sgRNA targeting the HEK3 locus were transfected into HEK293FT cells. Cells were collected 72 hours after transfection, and editing rates were evaluated by amplicon sequencing. […] A strand bias with G>A substitutions occurring at a higher rate than C>T substitutions was detected, which likely reflects preferential repair of mismatches on the nicked strand. […]
For short amplicon (˜300 bp) sequencing for HEK293T and A375 cells, the target region was amplified from genomic DNA samples using Phusion U Hot Start PCR master mix (ThermoFisher Scientific, F562) in a 20 μL reaction. […] Amplicons were pooled and prepared for sequencing on a NextSeq (Illumina) with paired-end reads (read1, 160 bp; index1, 8 bp; index2, 8 bp; read2, 160 bp). Reads were demultiplexed and analyzed with appropriate pipelines. […]
Raw fastq reads obtained from sequencing were quality trimmed using BBduk(1) (BBMap v38.93) with the options “qtrim=r1 trimq=28 maq=25”. […]

B1: UvrD: E. coli helicase (protein, UniProt P03018 1-720, looked up)
DNA helicase II: MDVSYLLDSLNDKQREAVAAPRSNLLVLAGAGSGKTRVLVHRIAWLMSVENCSPYSIMAVTFTNKAAAEMRHRIGQLMGTSQGGMWVGTFHGLAHRLLRAHHMDANLPQDFQILDSEDQLRLLKRLIKAMNLDEKQWPPRQAMWYINSQKDEGLRPHHIQSYGNPVEQTWQKVYQAYQEACDRAGLVDFAELLLRAHELWLNKPHILQHYRERFTNILVDEFQDTNNIQYAWIRLLAGDTGKVMIVGDDDQSIYGWRGAQVENIQRFLNDFPGAETIRLEQNYRSTSNILSAANALIENNNGRLGKKLWTDGADGEPISLYCAFNELDEARFVVNRIKTWQDNGGALAECAILYRSNAQSRVLEEALLQASMPYRIYGGMRFFERQEIKDALSYLRLIANRNDDAAFERVVNTPTRGIGDRTLDVVRQTSRDRQLTLWQACRELLQEKALAGRAASALQRFMELIDALAQETADMPLHVQTDRVIKDSGLRTMYEQEKGEKGQTRIENLEELVTATRQFSYNEEDEDLMPLQAFLSHAALEAGEGQADTWQDAVQLMTLHSAKGLEFPQVFIVGMEEGMFPSQMSLDEGGRLEEERRLAYVGVTRAMQKLTLTYAETRRLYGKEVYHRPSRFIGELPEECVEEVRLRATVSRPVSHQRMGTPMVENDSGYKLGQRVRHAKFGEGTIVNMEGSGEHSRLQVAFQGQGIKWLVAAYARLESV
- processivity range (double-stranded DNA): 30-40 base pairs

B2: TraI: E. coli helicase (protein)
chain: MAKIHMVLQGKGGVGKSAIAAIIAQYKMDKGQTPLCIDTDPVNATFEGYKALNVRRLNIMAGDEINSRNFDTLVELIAPTKDDVVIDNGASSFVPLSHYLISNQVPALLQEMGHELVIHTVVTGGQALLDTVSGFAQLASQFPAEALFVVWLNPYWGPIEHEGKSFEQMKAYTANKARVSSIIQIPALKEETYGRDFSDMLQERLTFDQALADESLTIMTRQRLKIVRRGLFEQLDAAAVL
- processivity range (double-stranded DNA): at least 850 base pairs

B3: Sgs1: helicase with short-range processivity (protein, UniProt P35187 1-1447, looked up)
ATP-dependent helicase SGS1: MVTKPSHNLRREHKWLKETATLQEDKDFVFQAIQKHIANKRPKTNSPPTTPSKDECGPGTTNFITSIPASGPTNTATKQHEVMQTLSNDTEWLSYTATSNQYADVPMVDIPASTSVVSNPRTPNGSKTHNFNTFRPHMASSLVENDSSRNLGSRNNNKSVIDNSSIGKQLENDIKLEVIRLQGSLIMALKEQSKLLLQKCSIIESTSLSEDAKRLQLSRDIRPQLSNMSIRIDSLEKEIIKAKKDGMSKDQSKGRSQVSSQDDNIISSILPSPLEYNTSSRNSNLTSTTATTVTKALAITGAKQNITNNTGKNSNNDSNNDDLIQVLDDEDDIDCDPPVILKEGAPHSPAFPHLHMTSEEQDELTRRRNMRSREPVNYRIPDRDDPFDYVMGKSLRDDYPDVEREEDELTMEAEDDAHSSYMTTRDEEKEENELLNQSDFDFVVNDDLDPTQDTDYHDNMDVSANIQESSQEGDTRSTITLSQNKNVQVILSSPTAQSVPSNGQNQIGVEHIDLLEDDLEKDAILDDSMSFSFGRQHMPMSHSDLELIDSEKENEDFEEDNNNNGIEYLSDSDLERFDEERENRTQVADIQELDNDLKIITERKLTGDNEHPPPSWSPKIKREKSSVSQKDEEDDFDDDFSLSDIVSKSNLSSKTNGPTYPWSDEVLYRLHEVFKLPGFRPNQLEAVNATLQGKDVFVLMPTGGGKSLCYQLPAVVKSGKTHGTTIVISPLISLMQDQVEHLLNKNIKASMFSSRGTAEQRRQTFNLFINGLLDLVYISPEMISASEQCKRAISRLYADGKLARIVVDEAHCVSNWGHDFRPDYKELKFFKREYPDIPMIALTATASEQVRMDIIHNLELKEPVFLKQSFNRTNLYYEVNKKTKNTIFEICDAVKSRFKNQTGIIYCHSKKSCEQTSAQMQRNGIKCAYYHAGMEPDERLSVQKAWQADEIQVICATVAFGMGIDKPDVRFVYHFTVPRTLEGYYQETGRAGRDGNYSYCITYFSFRDIRTMQTMIQKDKNLDRENKEKHLNKLQQVMAYCDNVTDCRRKLVLSYFNEDFDSKLCHKNCDNCRNSANVINEERDVTEPAKKIVKLVESIQNERVTIIYCQDVFKGSRSSKIVQANHDTLEEHGIGKSMQKSEIERIFFHLITIRVLQEYSIMNNSGFASSYVKVGPNAKKLLTGKMEIKMQFTISAPNSRPSTSSSFQANEDNIPVIAQKSTTIGGNVAANPPRFISAKEHLRSYTYGGSTMGSSHPITLKNTSDLRSTQELNNLRMTYERLRELSLNLGNRMVPPVGNFMPDSILKKMAAILPMNDSAFATLGTVEDKYRRRFKYFKATIADLSKKRSSEDHEKYDTILNDEFVNRAAASSNGIAQSTGTKSKFFGANLNEAKENEQIINQIRQSQLPKNTTSSKSGTRSISKSSKKSANGRRGFRNYRGHYRGRK
- processivity range (double-stranded DNA): about 100 base pairs

B4: UGI: uracil DNA glycosylase inhibitor fused to the HACE editor (protein, UniProt P14739 1-84, looked up)
Uracil-DNA glycosylase …: MTNLSDIIEKETGKQLVIQESILMLPEEVEEVIGNKPESDILVHTAYDESTDENVMLLTSDAPEYKPWALVIQDSNGENKIKML
modifications: fused to HACE editor
- effect of UGI fusion on editing levels for AID (HEK3 locus): significantly elevated the editing levels

B5: Rep: helicase with short-range processivity (protein, UniProt P09980 1-673, looked up)
ATP-dependent DNA helicase Rep: MRLNPGQQQAVEFVTGPCLVLAGAGSGKTRVITNKIAHLIRGCGYQARHIAAVTFTNKAAREMKERVGQTLGRKEARGLMISTFHTLGLDIIKREYAALGMKANFSLFDDTDQLALLKELTEGLIEDDKVLLQQLISTISNWKNDLKTPSQAAASAIGERDRIFAHCYGLYDAHLKACNVLDFDDLILLPTLLLQRNEEVRKRWQNKIRYLLVDEYQDTNTSQYELVKLLVGSRARFTVVGDDDQSIYSWRGARPQNLVLLSQDFPALKVIKLEQNYRSSGRILKAANILIANNPHVFEKRLFSELGYGAELKVLSANNEEHEAERVTGELIAHHFVNKTQYKDYAILYRGNHQSRVFEKFLMQNRIPYKISGGTSFFSRPEIKDLLAYLRVLTNPDDDSAFLRIVNTPKREIGPATLKKLGEWAMTRNKSMFTASFDMGLSQTLSGRGYEALTRFTHWLAEIQRLAEREPIAAVRDLIHGMDYESWLYETSPSPKAAEMRMKNVNQLFSWMTEMLEGSELDEPMTLTQVVTRFTLRDMMERGESEEELDQVQLMTLHASKGLEFPYVYMVGMEEGFLPHQSSIDEDNIDEERRLAYVGITRAQKELTFTLCKERRQYGELVRPEPSRFLLELPQDDLIWEQERKVVSAEERMQKGQSHLANLKAMMAAKRGK
- processivity range (double-stranded DNA): 30-50 base pairs

Reference: patent US20250346885A1, “SYSTEMS AND METHODS FOR TARGETED CONTINUOUS GENOME MUTAGENESIS” (The Broad Institute, Inc., priority 2023, published 2025)
